{"source": "patent US7425614B2", "about": "“Neuroprotective therapeutics preventing ERK/MAPK activation through the NMDA receptor” (Children's Medical Center Corporation, priority 2003, dated 2008)", "molecules": {"B1": {"name": "NR2B-BD: peptide of amino acids 886-1310 of the NR2B C-terminal domain that binds RasGRF1; used as NusA or EGFP fusion (protein)", "chain": "SPTATMNNTHSNILRLLRTAKNMANLSGVNGSPQSALDFIRRESSVYDISEHRRSFTHSDCKSYNNPPCEENLFSDYISEVERTFGNLQLKDSNVYQDHYHHHHRPHSIGSTSSIDGLYDCDNPPFTTQPRSISKKPLDIGLPSSKHSQLSDLYGKFSFKSDRYSGHDDLIRSDVSDISTHTVTYGNIEGNAAKRRKQQYKDSLKKRPASAKSRREFDEIELAYRRRPPRSPDHKRYFRDKEGLRDFYLDQFRTKENSPHWEHVDLTDIYKERSDDFKRDSVSGGGPCTNRSHLKHGTGEKHGVVGGVPAPWEKNLTNVDWEDRSGGNFCRSCPSKLHNYSSTVAGQNSGRQACIRCEACKKAGNLYDISKDNSLQELDQPAAPVAVTSNASSTKYPQSPTNSKAQKKNRNKLRRQHSYDTFVDL", "modifications": "left off: small tags and cut ends", "notes": "used as NusA or EGFP fusion"}}, "key": {"hippocampal neurons": {"tested_on": "hippocampal neurons", "assay": "Assay I: glutamate excitotoxicity in primary cultures of dissociated hippocampal neurons", "assay_type": "cell-based, rat", "details": "20 minute exposure to Glutamate (100 μM) and Glycine (10 μM); expression in neurons; n=5", "protocol": "(A) Survival of hippocampal neurons in culture exposed to Glutamate (100 μM) and Glycine (10 μM) for a 20 minute period. 14 div neuronal cultures were transfected with GFP, NR2B-BD or RasGRF1-BD 24 hours prior to analysis. The neuronal cultures were then incubated with glutamate for 20 minutes, washed with culture media and returned to the incubator for an additional 24 hours. The cells were then fixed with PFA and stained with a neuronal specific antibody, Map2. […] (B) Percentage of propidium iodide-resistant (surviving) neurons in organotypic hippocampal slices (P5+7div) expressing GFP, NR2B-BD or […] in control conditions and after 20 minutes exposure to NMDA (50 μM). The fluorescence of propidium iodide (PI) was measured 24 hours later. PI enters damaged cells and is a convenient tool to determine neuronal cell death. For PI staining, the slices were incubated in culture medium containing 0.1 mg/ml PI for 2 h. GFP, NR2B-BD and […] were expressed using the SindBis expression system. Mean±SEM. N=3.\nAssay I: primary cultures of dissociated hippocampal neurons (FIG. 7(A)). This method may be used to analyze the mechanisms of glutamate-dependent excitotoxicity (see e.g., Medina, et al., Eur J Neurosci. (1999) 11(4): 1167-78). Briefly, neuronal cell death was induced by a 20 minute exposure to Glutamate (100 μM) and Glycine (10 μM). […]"}, "NMDA receptor": {"tested_on": "NMDA receptor", "assay": "whole-cell recordings of NMDAR-mediated currents in cultured hippocampal neurons", "assay_type": "cell-based, rat"}}, "data": [{"molecule": "B1", "values": [{"measurement": "decrease of neuronal cell death induced by glutamate and glycine", "setting": "hippocampal neurons", "value": "47±2", "unit": "%"}, {"measurement": "average amplitude of the whole-cell current induced by bath application of NMDA", "setting": "NMDA receptor; 100 μM NMDA, neurons expressing BD fusion constructs", "value": "did not affect"}, {"measurement": "proportion of ifenprodil-sensitive (NR2B) current stimulated by NMDA bath application", "setting": "NMDA receptor; cultured neurons, 3 μM ifenprodil", "value": "neither RasGRF1-BD nor NR2B-BD expression changed"}, {"measurement": "mean amplitude and kinetics of the spontaneous NMDAR-mediated excitatory postsynaptic currents", "setting": "NMDA receptor; neurons expressing BD fusion constructs", "value": "did not affect"}]}]}
